What is called Kd is the free concentration of one partner at which half of the binding sites on the other are occupied at equilibrium, for simple one-to-one binding. Low readings indicate tighter binding, high ones weaker binding. As a reminder, the stoichiometry N is the number of molecules, sites or subunits per partner or assembly.

The source of these data is publication doi:10.1101/2024.09.17.612794 (bioRxiv, 2024).

Assay [1] has as its target T1, full-length Transportin-1 (Trn1), wild type (human, UniProt Q92973 1-898).
T1 sequence (looked up): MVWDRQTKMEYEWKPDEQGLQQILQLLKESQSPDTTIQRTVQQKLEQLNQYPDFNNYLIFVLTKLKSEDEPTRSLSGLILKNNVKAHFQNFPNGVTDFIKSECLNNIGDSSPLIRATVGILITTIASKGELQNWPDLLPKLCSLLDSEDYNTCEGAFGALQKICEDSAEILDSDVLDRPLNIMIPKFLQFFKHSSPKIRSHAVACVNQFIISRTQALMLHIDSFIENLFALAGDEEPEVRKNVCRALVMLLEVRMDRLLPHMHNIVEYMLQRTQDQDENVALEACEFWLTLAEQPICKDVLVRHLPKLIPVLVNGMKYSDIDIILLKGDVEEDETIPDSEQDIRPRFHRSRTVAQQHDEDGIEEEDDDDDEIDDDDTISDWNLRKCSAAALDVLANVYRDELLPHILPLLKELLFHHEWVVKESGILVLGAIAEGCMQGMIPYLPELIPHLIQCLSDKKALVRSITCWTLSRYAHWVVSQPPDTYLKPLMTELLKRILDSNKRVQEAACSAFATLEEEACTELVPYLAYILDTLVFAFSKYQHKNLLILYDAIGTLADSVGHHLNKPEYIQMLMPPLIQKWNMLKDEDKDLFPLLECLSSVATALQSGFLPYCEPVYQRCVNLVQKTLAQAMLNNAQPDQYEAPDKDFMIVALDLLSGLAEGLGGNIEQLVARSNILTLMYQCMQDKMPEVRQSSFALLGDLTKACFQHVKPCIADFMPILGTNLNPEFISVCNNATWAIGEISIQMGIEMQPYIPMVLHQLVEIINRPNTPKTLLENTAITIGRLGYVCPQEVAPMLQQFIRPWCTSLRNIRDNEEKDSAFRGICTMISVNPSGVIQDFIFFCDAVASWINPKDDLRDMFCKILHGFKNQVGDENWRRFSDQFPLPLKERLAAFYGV
Briefly: ITC.

Assay [2] concerns the target T1, full-length Transportin-1 (Trn1), wild …. The assay can be described thus: SEC-MALS. On the technique in general: SEC sorts molecules by how far they enter the pores of the column.
The target in assay [3] is T2, Trn1Δloop (HEAT repeat 8 loop replaced with the GGSGGSG linker) (human, UniProt Q92973 1-343; Q92973 376-898).
T2 chain: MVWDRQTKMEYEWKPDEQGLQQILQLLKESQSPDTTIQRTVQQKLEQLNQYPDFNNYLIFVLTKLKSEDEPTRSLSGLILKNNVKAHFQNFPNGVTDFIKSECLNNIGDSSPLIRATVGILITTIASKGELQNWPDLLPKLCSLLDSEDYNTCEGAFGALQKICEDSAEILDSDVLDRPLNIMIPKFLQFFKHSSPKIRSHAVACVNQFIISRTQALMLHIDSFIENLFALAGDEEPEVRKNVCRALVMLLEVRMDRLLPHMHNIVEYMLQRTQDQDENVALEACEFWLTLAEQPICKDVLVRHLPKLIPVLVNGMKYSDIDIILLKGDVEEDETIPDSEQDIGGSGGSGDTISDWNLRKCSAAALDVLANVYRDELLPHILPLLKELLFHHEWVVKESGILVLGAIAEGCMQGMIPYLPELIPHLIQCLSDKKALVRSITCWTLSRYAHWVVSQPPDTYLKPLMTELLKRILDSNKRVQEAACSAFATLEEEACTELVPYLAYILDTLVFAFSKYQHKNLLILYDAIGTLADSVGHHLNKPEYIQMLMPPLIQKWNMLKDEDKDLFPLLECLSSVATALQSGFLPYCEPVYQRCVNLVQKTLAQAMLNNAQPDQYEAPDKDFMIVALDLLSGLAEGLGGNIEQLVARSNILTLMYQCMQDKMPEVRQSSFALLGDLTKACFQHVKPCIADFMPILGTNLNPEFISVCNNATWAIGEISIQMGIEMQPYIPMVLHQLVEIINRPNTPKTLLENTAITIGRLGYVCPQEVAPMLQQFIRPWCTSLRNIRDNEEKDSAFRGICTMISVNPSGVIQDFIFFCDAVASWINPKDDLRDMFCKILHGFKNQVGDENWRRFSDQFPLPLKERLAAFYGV
Briefly: SEC-MALS.

B1: PPARγ (DHL), residues 102-505, purified (domain or fragment, human, UniProt P37231-1 102-505, looked up)
chain: YQSAIKVEPASPPYYSEKTQLYNKPHEEPSNSLMAIECRVCGDKASGFHYGVHACEGCKGFFRRTIRLKLIYDRCDLNCRIHKKSRNKCQYCRFQKCLAVGMSHNAIRFGRMPQAEKEKLLAEISSDIDQLNPESADLRALAKHLYDSYIKSFPLTKAKARAILTGKTTDKSPFVIYDMNSLMMGEDKIKFKHITPLQEQSKEVAIRIFQGCQFRSVEAVQEITEYAKSIPGFVNLDLNDQVTLLKYGVHEIIYTMLASLMNKDGVLISEGQGFMTREFLKSLRKPFGDFMEPKFEFAVKFNALELDDSDLAIFIAVIILSGDRPGLLNVKPIEDIQDNLLQALELQLKLNHPESSQLFAKLLQKMTDLRQIVTEHVQLLQVIKKTETDMSLHPLLQEIYKDLY
In the case of B1, the Kd in assay [1] stood at 200 nM. For the same molecule, the “stoichiometry N” value in assay [2] and in assay [3] was 1 molar ratio each time.

B2: PPARγ (DBD), residues 135-209, purified (domain or fragment, human, UniProt P37231-1 135-209, looked up)
chain: MAIECRVCGDKASGFHYGVHACEGCKGFFRRTIRLKLIYDRCDLNCRIHKKSRNKCQYCRFQKCLAVGMSHNAIR
Consider B2, for which the “stoichiometry N” value in assay [2] and in assay [3] was 1 molar ratio throughout.
